What was measured:
Assay in all cases: intrinsic tryptophan fluorescence titration; no ATP; Fluorescence titration (ex 295 nm, em 340 nm), one-site saturation fit; buffer, salt, pH and temperature not given in the material. Wild-type ADAAD Kd values are cited from ref 24 and not listed
Details in all cases: protein: recombinant; tags: His (Ni-NTA, pET-14b); hairpin
[1] = target: T1, ADAAD R592A (Bos taurus (bovine), UniProt Q9TTA5 221-940, R812A)
T1 sequence: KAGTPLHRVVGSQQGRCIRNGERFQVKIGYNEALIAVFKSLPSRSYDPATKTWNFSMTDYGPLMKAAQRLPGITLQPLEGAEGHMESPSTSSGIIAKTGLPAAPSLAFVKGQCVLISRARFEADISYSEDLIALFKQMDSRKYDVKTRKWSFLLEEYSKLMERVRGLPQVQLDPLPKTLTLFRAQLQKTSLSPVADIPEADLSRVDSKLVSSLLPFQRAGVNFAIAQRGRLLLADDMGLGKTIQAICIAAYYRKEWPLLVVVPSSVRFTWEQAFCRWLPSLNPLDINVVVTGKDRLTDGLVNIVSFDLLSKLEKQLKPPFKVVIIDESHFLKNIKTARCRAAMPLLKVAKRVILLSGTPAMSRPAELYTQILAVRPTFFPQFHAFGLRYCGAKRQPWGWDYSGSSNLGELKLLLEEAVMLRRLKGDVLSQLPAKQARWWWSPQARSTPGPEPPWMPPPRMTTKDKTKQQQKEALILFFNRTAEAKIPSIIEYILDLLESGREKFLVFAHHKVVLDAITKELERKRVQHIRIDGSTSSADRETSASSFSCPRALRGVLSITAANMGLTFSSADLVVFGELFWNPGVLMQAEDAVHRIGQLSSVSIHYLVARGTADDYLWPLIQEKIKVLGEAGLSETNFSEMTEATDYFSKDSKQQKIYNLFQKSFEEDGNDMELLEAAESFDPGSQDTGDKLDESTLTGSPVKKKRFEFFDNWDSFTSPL

[2] = target: T2, ADAAD R595A (Bos taurus (bovine), UniProt Q9TTA5 221-940, R815A)
T2 sequence: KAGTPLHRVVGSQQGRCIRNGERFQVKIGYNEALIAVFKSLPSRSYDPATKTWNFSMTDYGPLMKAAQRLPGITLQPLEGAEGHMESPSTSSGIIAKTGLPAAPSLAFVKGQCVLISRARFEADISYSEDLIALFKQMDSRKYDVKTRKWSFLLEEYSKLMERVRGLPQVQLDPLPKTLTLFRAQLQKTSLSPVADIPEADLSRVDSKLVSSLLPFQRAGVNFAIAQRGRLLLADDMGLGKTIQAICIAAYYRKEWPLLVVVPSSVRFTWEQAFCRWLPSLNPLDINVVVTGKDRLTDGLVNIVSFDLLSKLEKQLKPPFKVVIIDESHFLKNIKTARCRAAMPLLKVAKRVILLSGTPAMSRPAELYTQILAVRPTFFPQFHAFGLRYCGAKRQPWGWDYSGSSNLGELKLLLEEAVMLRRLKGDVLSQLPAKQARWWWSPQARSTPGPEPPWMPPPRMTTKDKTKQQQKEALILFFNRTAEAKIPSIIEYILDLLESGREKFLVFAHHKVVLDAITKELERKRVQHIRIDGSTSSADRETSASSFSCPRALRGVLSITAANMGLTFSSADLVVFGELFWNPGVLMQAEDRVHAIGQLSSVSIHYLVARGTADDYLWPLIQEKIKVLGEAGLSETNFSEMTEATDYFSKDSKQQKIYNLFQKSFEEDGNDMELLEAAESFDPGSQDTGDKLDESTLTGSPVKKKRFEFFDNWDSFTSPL

[3] = target: T3, ADAAD R595H (Bos taurus (bovine), UniProt Q9TTA5 221-940, R815H)
T3 sequence: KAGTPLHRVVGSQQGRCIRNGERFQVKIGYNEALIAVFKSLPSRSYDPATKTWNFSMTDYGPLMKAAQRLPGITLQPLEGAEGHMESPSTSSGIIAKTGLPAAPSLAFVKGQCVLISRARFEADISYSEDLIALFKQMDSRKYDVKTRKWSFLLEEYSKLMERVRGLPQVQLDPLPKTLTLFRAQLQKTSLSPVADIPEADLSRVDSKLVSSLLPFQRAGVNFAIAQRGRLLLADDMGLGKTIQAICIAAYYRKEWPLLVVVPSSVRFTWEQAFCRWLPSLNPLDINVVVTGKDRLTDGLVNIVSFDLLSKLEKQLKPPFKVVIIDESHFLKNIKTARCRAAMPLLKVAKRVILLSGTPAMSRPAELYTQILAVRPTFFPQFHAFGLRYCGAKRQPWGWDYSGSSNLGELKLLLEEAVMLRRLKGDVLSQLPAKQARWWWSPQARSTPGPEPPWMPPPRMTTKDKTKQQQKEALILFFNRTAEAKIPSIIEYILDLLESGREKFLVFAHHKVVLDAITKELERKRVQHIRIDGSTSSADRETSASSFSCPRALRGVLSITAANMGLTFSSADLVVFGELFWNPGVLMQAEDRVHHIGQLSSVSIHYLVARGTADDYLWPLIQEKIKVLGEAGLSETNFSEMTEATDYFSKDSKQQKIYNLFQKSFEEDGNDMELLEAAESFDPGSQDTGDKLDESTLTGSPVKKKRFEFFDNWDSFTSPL

Binder: GCGCAATTGCGCTCGACGATTTTTTAGCGCAATTGCGC (structured_DNA) [slDNA (stem-loop DNA)]
- Kd [1]: 31.5 ± 1.3 nM
- Kd [2]: 24 ± 0.6 nM
- Kd [3]: 24.3 ± 6.1 nM
